Where two headings read alike, the source gives them in different places.
Tests used:
[1] = system: C3H 10T1/2(clone 8) cells; assay: In vitro transformation assay (MCA-induced); assay type: cell-based; conditions: for Transformed foci / Fraction of dishes containing transformed foci / No. of dishes with transformed foci/No. of dishes: MCA 1 μg/ml 24 hr, conjugates 1.0 μg/ml first three weeks; for Fraction of dishes containing transformed foci / No. of dishes with transformed foci/No. of dishes: scored at six weeks
Procedure: Transformation assays were carried out using C3H 10T1/2(clone 8) cells according to the published recommendations [Reznikoff, C. A., et al., Cancer. Res., 33:3239-3249 (1973); Reznikoff, C. A., et al., Cancer. Res., 33:3231-3238 (1973)]. Stock cultures of mycoplasma-free cells were maintained by passing 50,000 cells per 75 cm^2 flask every seven days. Using this schedule, the cells were always passed approximately 2 days before reaching confluence. The stock culture was grown in Eagle's basal medium supplemented with 10% FBS, penicillin (100 units), and streptomycin (100 μg) and used for the transformation assays at passages of 9 to 14. The cells were passed by treating the stock cells with trypsin (0.1%) in PBS for 5 min and quenching the trypsin with 5 ml of the medium. This procedure was adapted to minimize spontaneous transformation in the stock cultures and maximize the plating efficiency in the petri dishes. The FBS stock used in the cultures was pre-screened to ensure that the serum was able to support the expression and the growth of the transformed cells.
For the transformation assays, C3H 10T1/2 cells (1000/dish) were seeded into 60 mm petri dishes and allowed to grow in a humidified 5% CO2 atmosphere in Eagle's basal medium, supplemented with 10% FBS, penicillin (100 units), and streptomycin (100 μg), for 24 hr. Subsequently, the cells were initiated by treatment with 25 μl of the 3-methylcholanthrene (MCA) in acetone stock solution ([…]) to a final concentration of 1 μg/ml of MCA (5 μg/5 ml). The cells were allowed to grow in the presence of the carcinogen or solvent for 24 hr, and the medium in each dish was then replaced with fresh medium containing no carcinogen or solvent. The medium in the dishes was replaced twice per week for the first two weeks of the assay, and thereafter once a week for the remainder four weeks of the assay. In the experiments designed to determine the transformation inhibitory activity of the conjugates, the cells were maintained in the medium containing the conjugates (1 μg/ml) for the first three weeks of the assay; thereafter, the cells were maintained in medium containing no added conjugates.
Six weeks after the carcinogen treatment, the cells were inspected under a microscope for adherence to the culture dishes and were washed with PBS and then fixed in 100% methanol. The fixed monolayers were then stained with Giemsa stain. Twenty dishes per group were treated in each experiment. In addition to the test groups, all the transformation assays contained at least three other groups: negative control (not treated with carcinogen or solvent), acetone control (treated with 25 μl of acetone), and positive control [treated with MCA (1 μg/ml) in 25 μl of acetone]. The transformed foci (>3 mm in diameter) in the plates were studied under a microscope and classified according to published guidelines as types I, II, or III [Landolph, J. R., Transfomatin assay of established cell lines: Mechanism and Application (ed. Kakunaga, T., and Yamasaki, H.) IARC Scientific Publications, Lyon, France pp. 185-201 (1985)]. Briefly, type III foci were dense, multilayered, basophilic, areas of cell growth which stained to a deep blue color with Giemsa and had rough crisscrossed edges. Type II foci were also dense, multilayered, areas of cell growth, but were stained to a purple color with Giemsa and had smoother, more defined edges compared to Type III foci. Type I foci were not scored in the assay.
BBI, either as the free protein or in conjugated form to palmitic or oleic acid, was added to the cultures at 1.0 μg/ml for the first three weeks of the transformation assay period starting immediately after the MCA treatment. MCA-treated cells were exposed to 3-methylcholanthrene, dissolved in 25 μl of acetone, at a concentration of 1 μg/ml for 24 hr. Acetone-treated cells were exposed to 25 μl of acetone for 24 hr only. […]

C3H 10T1/2 cells = assay: Plating efficiency; assay type: cell-based
Procedure: The plating efficiency (PE) of the cells was also studied in conjunction with each of the transformation assays. To determine the PE of the cells in the different treatment groups, cells (200 cells/dish) were seeded into three 60-mm petri dishes per experiment group and treated in the identical manner as the transformation assay cells. The cells in these assays were terminated at 10 days, fixed with 100% methanol, and stained with giemsa; the colonies of 50 cells or more visible under a microscope were then counted. The plating efficiency is defined as the (number of colonies/number of cells seeded)×100%.

Caco-2 cells = assay type: cell-based, Human
Procedure: Human colon carcinoma cells (Caco-2) were detached from 25 cm^2 stock culture flasks using a 10 min incubation at 37° C. with 0.5 ml of a trypsin/EDTA solution (0.5% trypsin, 5.3 mM EDTA). The cells were then suspended in 5 ml of Dulbecco's minimum essential medium, supplemented with 15% fetal bovine serum (FBS), L-glutamine (1%), and essential amino acids (1%), and counted using a coulter counter.
Radioiodination of BBI and BBIssPal was carried out using the chloramine-T method [McConahey, P. C. and Dixon, F. J., Meth. Enzymol., 70:221-247 (1980)]. Confluent, 14-day old cell monolayers were washed once with, and then incubated in, serum-free Dulbecco medium at 37° C. for 30 min. Subsequently, the incubation medium was replaced with serum free medium containing ^125 I-BBI (10 μg/ml), either as native-BBI or as BBIssPal or BBIssOleic, and the monolayers were incubated for a further 60 min at 37° C. The monolayers were then washed three times with ice-cold PBS, and then exposed to trypsin (0.5%, EDTA 5.3 mM) for 10 min at 37° C. The detached cells were transferred to tubes, isolated by centrifugation, washed three times using ice-cold PBS, assayed for accumulated radioactivity using a gamma counter, and finally assayed for cell protein using the published method [Lowry, O. H., et al., J. Biol. Chem., 193:265-275 (1951)].
In some experiments the uptake of reduced ^125 I-BBIssPal into cells was determined. ^125 I-BBIssPal was reduced with DTT (50 mM) at 60° C. for 5 min followed by a further 25 min at 37° C. In control experiments, ^125 I-BBIssPal was exposed in medium to the same temperatures without being exposed to DTT.
The uptake of ^125 I-BBIssPal in the presence of BSA (fatty acid free) was determined as follows. ^125 I-BBIssPal was incubated with medium containing 0.1% BSA for 30 min at 37° C. before being added to the cell monolayers. In some uptake experiments, BSA was first mixed with a 3-fold molar excess of palmitic acid, and then incubated with the conjugates prior to the experiments. In the experiments where the uptake of ^125 I-BBIssPal was determined in medium containing FBS, the conjugates was simply added to the medium containing the required amount of FBS.
The cell monolayers were incubated with ^125 I-labeled conjugates at 10 μg/ml for 60 min at 37° C. The results presented are the average of three monolayers ±SEM. The uptake experiments were carried out in Dulbecco medium, in the presence and absence of added FBS.
The cell uptake of ^125 I-BBI, either as the native protein or as BBIssPal was determined before and after reduction with DTT (50 mM) for 5 min at 60° C. and 25 min at 37° C.
The uptake experiments were carried out in Dulbecco medium, in the presence and absence of added fatty acid-free BSA (BSA) or fatty acid-loaded BSA (BSA/FA). The results of studies of the uptake of ^125 I-BBI, either as the native-BBI or in conjugated form to palmitic or oleic acid, in Caco-2 cells in the presence of serum-free medium are presented in FIG. 1. The results are shown as the average ng of BBI internalized ±SEM, n=3. The uptake of ^125 I-BBIssPal into the cells was approximately 100-fold higher than that of ^125 I-BBI. […] The difference between the uptake of ^125 I-BBIssPal and ^125 I-BBIssOleic were significant.

[2] = parameters: species or system CF-1 mice; conditions: mouse, in vivo, iv, 3 mg/kg
Procedure: Female CF-1 mice, […], weighing 20-25 g each, with free access to food and water prior to the experiments, were used for the animal experiments. ^125 I-BBI (3 mg/kg), as native-BBI or as BBIssPal or BBIssOleic conjugate, was administered to the animals via the tail vein. At 0.5, 3, and 24 hr post-injection, 3 animals from each experiment group were sacrificed and their blood (200 μl), the kidneys, the lungs, and the liver were removed, rinsed in ice-cold PBS, and assayed for accumulated radioactivity. The weights of the organs were recorded and used to adjust the concentration of the conjugates in the organs.

| Molecule | Transformed foci [1] | Fraction of dishes containing transformed foci [1] | No. of dishes with transformed foci/No. of dishes [1] | Plating Efficiency (C3H 10T1/2 cells; 200 cells/dish, 10 days, treated as in the transformation assay) | Effect of fatty acid-loaded BSA on uptake (Caco-2 cells) | Reduction of uptake after reduction with DTT (Caco-2 cells) | Reduction of uptake by defatted-BSA (Caco-2 cells) | Blood levels and removal from circulation [2] | Kidney accumulation [2] | Plating Efficiency (C3H 10T1/2 cells) | Uptake, fold higher than that of BBI (Caco-2 cells) | Blood levels, fold higher than BBI [2] | Kidney clearance, fold lower than native-BBI [2] | Liver accumulation, fold higher than BBI [2] | Lung accumulation/levels, fold higher than BBI [2] | Retention in the liver [2] | Retention of anti-transformation activity of BBI ([1]; 1.0 μg/ml) |
| --- | --- | --- | --- | --- | --- | --- | --- | --- | --- | --- | --- | --- | --- | --- | --- | --- | --- |
| Cc1ccc2cc3c(ccc4ccccc43)c3c2c1CC3 [MCA, 3-methylcholanthrene, reference compound] | 6 out of the 19 dishes scored contained type III foci | 0.32 | 6/19 | 21 ± 3.0% |  |  |  |  |  |  |  |  |  |  |  |  |  |
| BBI: a hydrophilic protein which has low uptake into cells and is not orally bioavailable (protein, UniProt P01055 40-110, looked up) Bowman-Birk type proteinase …: DDESSKPCCDQCACTKSNPPQCRCSDMRLNSCHSACKSCICALSYPAQCFCVDITDFCYEPCKPSEDDKEN | no transformed foci | 0 | 0/20 |  | not affected | did not cause a reduction in the uptake | not affected | rapidly excreted from the body without attaining high blood levels | rapidly accumulated in the kidneys | 24 ± 2.0% |  |  |  |  |  |  |  |
| BBIssOleic: the oleic acid conjugated BBI (conjugate, UniProt P01055 40-110, looked up, oleyl disulfide conjugate; 125I, the oleic acid conjugated BBI) Bowman-Birk type proteinase …: DDESSKPCCDQCACTKSNPPQCRCSDMRLNSCHSACKSCICALSYPAQCFCVDITDFCYEPCKPSEDDKEN | no transformed foci | 0 | 0/20 |  |  |  |  | higher blood levels than BBI |  | 24 ± 3.5% | about 108 fold | about 4 fold | about 4 fold | about 4 fold | about 2 fold | significant levels of the conjugate present in the liver even at 24 hr post-injection | retained the original biological activity of BBI |
